Measurements from article PMC2413239.

Molecular target: X. laevis FcRγ subunit, c-myc-tagged (X. laevis)

- surface expression of XFL1.7-HA on transiently transfected 293T cells (anti-HA surface staining, flow cytometry), alone against co-transfected with FcRγ: 2 fold
Substance: XFL1.7-HA with its own TM1 region (X. laevis XFL1.7, extracellular plus transmembrane part) (domain or fragment)
